In the supplement of paper PMC7125110:
± gives the standard error. Variants at the floor of the assay were thinned out.

B1: glmS ribozyme (parent)
chain: AUAAAAGCGCCAGAACUACAGAAAUGUAGUUGACGAGGAGGAGGUUUAUCGAAUUUUCGGCGGAUGCCUCCAAA

What was measured:
Conditions in all cases: with glucosamine-6-phosphate
glucosamine-6-phosphate [1] = variants of: B1; assay: self-cleavage kobs at 640 uM GlcN6P; higher = faster cleavage; RNA array
Summary of the method: (§1)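 Barcoded ribozyme variants on sequenced MiSeq chips were transcribed in situ by E. coli RNA polymerase and followed at 37 °C through a hybridised Cy3 probe. Glucosamine-6-phosphate at 40 μM to 10 mM in HEPES/KCl/Mg(OAc)2 buffer was flowed in, and tiles were imaged over ~14 h. Signals were normalised to baseline and to non-cleaving reference variants, and per-tile medians were fit to one- or two-exponential decays to give kobs. Weighted Michaelis–Menten fits across concentrations gave kcat and KM.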

glucosamine-6-phosphate [2] = variants of: B1; assay: self-cleavage kobs at 10000 uM GlcN6P; higher = faster cleavage; RNA array
Summary of the method: as §1

glucosamine-6-phosphate [3] = variants of: B1; assay: self-cleavage kobs at 2500 uM GlcN6P; higher = faster cleavage; RNA array
Summary of the method: as §1

Variant	self-cleavage kobs at 640 uM GlcN6P (glucosamine-6-phosphate [1]) [s⁻¹]	self-cleavage kobs at 10000 uM GlcN6P (glucosamine-6-phosphate [2]) [s⁻¹]	self-cleavage kobs at 2500 uM GlcN6P (glucosamine-6-phosphate [3]) [s⁻¹]
C16U U31A A33C U56G C68G	< 1e-05	–	–
A14U A36U U56G C67G	0.000671 ± 0.0003	–	–
A14U A15U G60U C71U	< 1e-05	< 1e-05	–
A14U G29C A64G	< 1e-05	–	–
A15G U45C C71U	0.000376 ± 0.00017	–	0.000625 ± 0.0003
C16U G66U C68G	0.000124 ± 4.1e-05	–	–
C16U A39G A53C C68A	< 1e-05	–	–
A14U A36U G38C G62A	< 1e-05	–	–
C16U G35U A64C	< 1e-05	–	< 1e-05
A14U A39C A64G	0.000213 ± 5e-05	–	0.000771 ± 0.0002
A15U U31C A39C	4.66e-05 ± 1.3e-05	–	0.000126 ± 2.4e-05
A15C U49G G62U A64C C70U	< 1e-05	–	–
A15U A52G C58U	< 1e-05	–	–
A15U C16G U46C	< 1e-05	–	–
A15U A36C G44U C58G G59C C61U G63U U69A	< 1e-05	–	–
A15G U30C C34G A36C G41U U49A C70A	< 1e-05	–	< 1e-05
A14G C61G G66U C67G	0.000103 ± 2.7e-05	–	–
C16U A39C U65G	0.000131 ± 3.8e-05	0.000837 ± 0.00011	8.33e-05 ± 2.6e-05
C16U G29U G40U G62C	< 1e-05	–	–
A14U U31A G37C G59C	< 1e-05	–	< 1e-05
G21A C70U	0.00594 ± 0.0022	–	0.00398 ± 0.0016
C16A G41A G43U C61G C68U	< 1e-05	–	< 1e-05
C16G A33C G38U A52U	< 1e-05	–	–
A15C U46A G60U	< 1e-05	–	–

Variant	self-cleavage kobs at 640 uM GlcN6P (glucosamine-6-phosphate [1]) [s⁻¹]	self-cleavage kobs at 10000 uM GlcN6P (glucosamine-6-phosphate [2]) [s⁻¹]	self-cleavage kobs at 2500 uM GlcN6P (glucosamine-6-phosphate [3]) [s⁻¹]
A15U C16G G37C	< 1e-05	–	–
A14U A53U C67G	0.000162 ± 4.5e-05	–	–
A15U G29A C68U	5.07e-05 ± 1.3e-05	–	7.12e-05 ± 2.1e-05
C16U A48C G62U	< 1e-05	–	< 1e-05
A14G G66U C67G	0.000361 ± 7.9e-05	–	0.00105 ± 0.00021
A14U A36C G37A G38A	< 1e-05	–	–
A15U C16A U47A C61G C68G	8.84e-05 ± 3.3e-05	–	–
A15U C16U A39C	5.94e-05 ± 1.6e-05	–	–
A14G U31G C67G	6.87e-05 ± 2.7e-05	–	5.23e-05 ± 1.9e-05
C16U U47A G62U	< 1e-05	–	–
A14G U49A G63U	< 1e-05	–	–
C19U U46A	0.0011 ± 0.00031	–	0.0021 ± 0.00075
A15C C58U C61A C70U	6.5e-05 ± 2.2e-05	–	–
C16A G40U U57G	< 1e-05	–	< 1e-05
A15C C58A C67G C71G	4.54e-05 ± 1.8e-05	–	–
C16A U30G G35A U69C	< 1e-05	–	< 1e-05
A15U C34U G41U C71U	< 1e-05	–	–
A14U A42C G51U	< 1e-05	–	–
C16A G63U U69A	0.000106 ± 3.1e-05	–	–
A14G G29U A39U	0.00293 ± 0.0011	–	–
C16A U30G G35A C50A	< 1e-05	< 1e-05	–
C16A A52G C70U	0.00109 ± 0.00029	–	–
A15C C58G C70A	5.23e-05 ± 1.5e-05	–	4e-05 ± 2e-05
A15C G32A U55C G59U	< 1e-05	–	–

Variant	self-cleavage kobs at 640 uM GlcN6P (glucosamine-6-phosphate [1]) [s⁻¹]	self-cleavage kobs at 10000 uM GlcN6P (glucosamine-6-phosphate [2]) [s⁻¹]	self-cleavage kobs at 2500 uM GlcN6P (glucosamine-6-phosphate [3]) [s⁻¹]
A15C G41C A48G	< 1e-05	–	–
A15C C50U G51A G62U U69C	3.56e-05 ± 1.7e-05	–	–
A15G U31G A39U G60U	< 1e-05	–	< 1e-05
A15C U56A U65G	5.97e-05 ± 2.3e-05	0.000562 ± 0.00012	0.000177 ± 6.3e-05
C16A U31C G41C	< 1e-05	–	< 1e-05
C16G G59C C61U	< 1e-05	–	< 1e-05
A15U C16U G51C C58G C61G C67U	0.000417 ± 8.1e-05	–	–
A15C U47G G66U	< 1e-05	–	–
C16A G38U C67G	0.0005 ± 0.00011	–	–
A14U U31A G32U C67U	5.86e-05 ± 2.4e-05	–	0.000276 ± 7.5e-05
A14U G40A A53C C71A	5.44e-05 ± 1.1e-05	–	0.000153 ± 2.6e-05
A15G G35C A53U	< 1e-05	< 1e-05	< 1e-05
A15C C16G U55C C61G	< 1e-05	–	–
A14U A33U C50G G66U	0.0013 ± 0.00063	–	6.05e-05 ± 2.7e-05
A14U A36C G44A U55C C61A	< 1e-05	–	–
A14U C34A C70G	< 1e-05	–	< 1e-05
C16U G32U A36C C58U	< 1e-05	–	–
A14U U17C A18U C19A G59U G66A	< 1e-05	–	< 1e-05
A14G G41U C71U	0.000155 ± 4.4e-05	–	0.00102 ± 0.00029
A15U U31A G32C	4.96e-05 ± 2e-05	–	6.02e-05 ± 2.5e-05
C16G G43U G66A	< 1e-05	–	–
A14U G38A A53G G63U	< 1e-05	–	–
